Measured values reported in patent publication US20070173444A1 (AFFYMAX, published 2007).
Bridge positions count the residues as written; N and C are the ends.

Legend:
[1] = biological target: T1, IL-5RaECD (the extracellular domain (ECD) of the human IL-5 receptor a chain) (human, UniProt Q01344 21-342, extensively glycosylated); test: scintillation proximity competition assay, 20 pM [125I] IL-5, soluble IL-5Ra on beads; dimer of the printed monomer
T1 construct: extracellular domain; also called IL-5RαECD; soluble IL-5Ra
T1 sequence (Q01344 21-342, looked up): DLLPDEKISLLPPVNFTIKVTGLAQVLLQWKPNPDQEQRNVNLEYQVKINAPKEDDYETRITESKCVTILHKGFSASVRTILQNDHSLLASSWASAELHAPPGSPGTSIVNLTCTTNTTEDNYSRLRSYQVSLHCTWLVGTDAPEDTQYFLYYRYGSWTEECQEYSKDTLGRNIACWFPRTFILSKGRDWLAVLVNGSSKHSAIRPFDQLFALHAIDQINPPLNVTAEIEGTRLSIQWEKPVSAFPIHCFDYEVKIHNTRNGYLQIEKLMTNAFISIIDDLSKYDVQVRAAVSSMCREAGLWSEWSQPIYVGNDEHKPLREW
Method: Binding affinities of synthetic peptides for IL-5Ra were measured in a scintillation proximity assay (SPA) using radio-iodinated IL-5. Streptavidin coated SPA beads (Amersham) were suspended in IL-5 binding buffer (phosphate buffered saline, 0.1% bovine serum albumin, 0.2% NaN3) at 2 mg beads/ml of buffer. Biotinylated mAb 179 was adsorbed onto the beads at a ratio of 2 ig Ab/mg beads by incubating the beads and antibody with agitation for at least 2 h. at 4. The beads were pelleted at 2500 rpm and resuspended at 2 mg/ml in binding buffer. Soluble IL-5Ra was then adsorbed onto the beads by diluting a solution of soluble receptor harvest 1:500 into the bead suspension and incubating with agitation for 2 hr at 4. The beads were again pelleted at 2500 rpm and resuspended at 2 mg/ml in binding buffer. Competition binding assays were carried out in 100p1 reactions in white polystyrene microtiter plates. These reactions contained 0.05 mg of receptor coated SPA beads, various concentrations of test peptide diluted in binding buffer, and 20 pM [₁₂₅I] IL-5 (Amersham). The plates were incubated at room temperature for 1 hour with agitation, then centrifuged for 5 min at 1500 rpm followed by scintillation counting on a Topcount instrument (Packard). Total binding was defined by the amount of [₁₂₅I] IL-5 bound in the absence of any competitor. Non-specific binding was defined by the amount of [₁₂₅I] IL-5 bound in the presence of 30 nM IL-5. Peptide binding data was analyzed to determine the peptide concentration required to reduce specific [₁₂₅I] IL-5 binding by 50% (IC₅₀). In each instance, the dimer has both intramolecular and intermolecular disulfide linkages as shown generically below: […]

[2] = biological target: T2, native IL-5R a/β complex on TF-1 cells (human, UniProt Q01344 21-420; P32927 17-897); test: competition with [125I] IL-5 binding to TF-1 cells; AF 18748 as competitor
T2 construct: whole, on cells; also called native heterodimeric form of the receptor
T2 sequence (looked up) 1: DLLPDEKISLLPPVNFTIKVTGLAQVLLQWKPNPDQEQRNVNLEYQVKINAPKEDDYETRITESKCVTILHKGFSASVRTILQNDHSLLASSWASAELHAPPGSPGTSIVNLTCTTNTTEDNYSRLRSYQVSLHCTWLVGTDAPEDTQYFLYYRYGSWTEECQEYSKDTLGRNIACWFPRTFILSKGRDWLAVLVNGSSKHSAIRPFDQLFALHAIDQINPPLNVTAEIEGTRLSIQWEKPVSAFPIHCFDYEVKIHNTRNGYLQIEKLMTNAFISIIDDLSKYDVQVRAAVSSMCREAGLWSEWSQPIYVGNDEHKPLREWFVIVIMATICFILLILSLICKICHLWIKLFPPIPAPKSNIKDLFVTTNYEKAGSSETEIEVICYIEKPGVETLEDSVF
T2 sequence (looked up) 2: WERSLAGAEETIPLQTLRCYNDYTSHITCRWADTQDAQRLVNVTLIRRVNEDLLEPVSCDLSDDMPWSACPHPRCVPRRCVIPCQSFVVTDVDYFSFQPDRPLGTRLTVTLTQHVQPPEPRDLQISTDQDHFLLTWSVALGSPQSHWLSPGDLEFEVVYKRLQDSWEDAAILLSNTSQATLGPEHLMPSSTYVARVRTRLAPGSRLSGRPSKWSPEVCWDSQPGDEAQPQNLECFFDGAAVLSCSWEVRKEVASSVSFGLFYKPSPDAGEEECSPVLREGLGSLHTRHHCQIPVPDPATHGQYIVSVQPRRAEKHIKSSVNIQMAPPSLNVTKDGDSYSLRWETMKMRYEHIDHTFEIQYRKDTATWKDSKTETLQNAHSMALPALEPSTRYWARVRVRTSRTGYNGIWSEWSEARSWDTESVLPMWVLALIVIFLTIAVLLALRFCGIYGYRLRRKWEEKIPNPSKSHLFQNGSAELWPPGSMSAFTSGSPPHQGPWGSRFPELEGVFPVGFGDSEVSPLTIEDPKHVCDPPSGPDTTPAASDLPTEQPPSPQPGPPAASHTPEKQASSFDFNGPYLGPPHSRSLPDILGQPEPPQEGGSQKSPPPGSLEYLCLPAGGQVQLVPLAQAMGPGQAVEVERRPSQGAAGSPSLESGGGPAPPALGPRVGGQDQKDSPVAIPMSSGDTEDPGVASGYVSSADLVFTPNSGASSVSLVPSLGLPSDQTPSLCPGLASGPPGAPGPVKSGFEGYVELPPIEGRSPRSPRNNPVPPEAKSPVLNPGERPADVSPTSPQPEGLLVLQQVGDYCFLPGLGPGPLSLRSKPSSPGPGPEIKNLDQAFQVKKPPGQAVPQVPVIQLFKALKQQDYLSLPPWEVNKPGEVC

[3] = biological target: T2, native IL-5R a/β complex on TF-1 cells; test: cell-based or functional assay
[4] = biological target: chimeric IL-5Ra/EGFR receptor (human, UniProt Q01344 21-342); test: cell-based or functional assay
[5] = biological target: T2, native IL-5R a/β complex on TF-1 cells; test: cell-based or functional assay; remark: listed apart in the source
[6] = biological target: T1, IL-5RaECD (the extracellular domain …); test: competition with [125I] IL-5 for binding to IL-5Ra ECD
Method: Binding affinities of synthetic peptides for IL-5Ra were measured in a competition binding assay using radio-iodinated IL-5. Immulon 4 (Dynatech) microtiter wells were coated with streptavidin (Sigma) by incubating 100 ul of a 50 ug/ml solution in PBS for 30 min. at 37. The wells were blocked with 200 ul of 1% BSA in PBS for 15 min. at 37, followed by 100 III of biotinylated monoclonal antibody, designated mAb 179, at 5 u. g/ml in PBS. Soluble IL-5Ra was then immobilized in the wells by incubating 100 µl of a solution of soluble receptor harvest diluted 1: 5000 in PBS/0.1% BSA for 1 hr. at 4. After washing away unbound receptor, 50 ul of various concentrations of test peptide diluted in PBS/0.1% BSA were added to the wells, followed by 50 µl of a fixed concentration of [₁₂₅I] IL-5 (Amersham). The binding reactions were incubated at 4 C for 2 hr, then washed with PBS to remove unbound [₁₂₅I] IL-5. Bound [₁₂₅I] IL-5 was determined by gamma counting.
Total binding was defined by the amount of [₁₂₅I] IL-5 bound in the absence of any competitor. Non-specific binding was defined by the amount of [₁₂₅I] IL-5 bound in the presence of 30 nM IL-5. Peptide binding data was analyzed to determine the peptide concentration required to reduce specific [₁₂₅I]

B1: AF 18748 (a dimer of residues 32-50 of SEQ ID NO: 8) (peptide)
peptide: H-TGGGDGYVCVEWARCPTCK-OH
modifications: disulfide 15-18; also: homodimer via interchain disulfide Cys9-Cys9
notes: Synthetic dimer made with orthogonal protecting groups
[1]
  SPA pIC50: 9.1 negative log of the molar IC50
[2]
  IC50: 0.4 nM
[3]
  inhibition of IL-5 induced human eosinophil adhesion to immobilized IgG, IC50: 0.348 nM
[4]
  EC50 (read off the curve), luciferase reporter activity of IL-5Ra/EGFR Ba/F3 cells: ~0.03 nM
[5]
  Microphysiometer pIC50 (block of TF-1 cell response to IL-5): 9.6 negative log of the molar IC50
[6]
  IC50: 0.78 nM
